Assay results from the supplement of paper PMC11136658.

Tested on: peptide library, one residue held at a place counted from the Y acceptor
Experiment: relative phosphorylation of the sub-library (ratio to the mean residue at this position); higher = residue favoured
Method in brief: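 Purified recombinant kinases were given 50 μM ATP with γ-32P-ATP and biotinylated Tyr-centred peptide library mixtures for 90 min in 384-well plates. Peptides bound to streptavidin membranes were rinsed and quantified by phosphorimaging, and intensities were normalized per position by the sum of the 18 randomized residues (16 with the Ser/Thr-free library) and multiplied by that number. The reported values are phosphorylation relative to the mean randomized residue.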

Chain of ERBB4, construct: aa682-993, human (Q15303 682-993, looked up): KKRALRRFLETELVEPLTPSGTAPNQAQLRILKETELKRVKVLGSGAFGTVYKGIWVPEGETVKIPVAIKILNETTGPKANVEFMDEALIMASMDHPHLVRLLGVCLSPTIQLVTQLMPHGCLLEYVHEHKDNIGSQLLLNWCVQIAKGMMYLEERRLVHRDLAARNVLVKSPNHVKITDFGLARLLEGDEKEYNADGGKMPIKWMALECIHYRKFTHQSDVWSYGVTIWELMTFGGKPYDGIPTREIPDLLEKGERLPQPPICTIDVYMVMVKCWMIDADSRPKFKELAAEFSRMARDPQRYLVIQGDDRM
Chain of FLT3, construct: aa564-end, human (P36888 564-993, looked up): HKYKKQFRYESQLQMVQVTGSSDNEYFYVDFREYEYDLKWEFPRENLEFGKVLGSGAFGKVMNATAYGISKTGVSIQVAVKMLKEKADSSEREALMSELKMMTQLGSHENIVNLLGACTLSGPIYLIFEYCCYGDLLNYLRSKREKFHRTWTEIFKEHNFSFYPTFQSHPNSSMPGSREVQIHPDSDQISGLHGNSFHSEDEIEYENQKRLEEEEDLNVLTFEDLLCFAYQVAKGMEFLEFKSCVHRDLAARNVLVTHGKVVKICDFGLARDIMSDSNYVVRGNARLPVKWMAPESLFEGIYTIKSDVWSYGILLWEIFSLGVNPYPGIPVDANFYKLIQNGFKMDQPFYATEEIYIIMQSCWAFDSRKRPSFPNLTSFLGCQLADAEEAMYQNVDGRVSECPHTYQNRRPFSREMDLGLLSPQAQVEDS
Chain of LCK, construct: Full length, human (P06239 whole entry, looked up): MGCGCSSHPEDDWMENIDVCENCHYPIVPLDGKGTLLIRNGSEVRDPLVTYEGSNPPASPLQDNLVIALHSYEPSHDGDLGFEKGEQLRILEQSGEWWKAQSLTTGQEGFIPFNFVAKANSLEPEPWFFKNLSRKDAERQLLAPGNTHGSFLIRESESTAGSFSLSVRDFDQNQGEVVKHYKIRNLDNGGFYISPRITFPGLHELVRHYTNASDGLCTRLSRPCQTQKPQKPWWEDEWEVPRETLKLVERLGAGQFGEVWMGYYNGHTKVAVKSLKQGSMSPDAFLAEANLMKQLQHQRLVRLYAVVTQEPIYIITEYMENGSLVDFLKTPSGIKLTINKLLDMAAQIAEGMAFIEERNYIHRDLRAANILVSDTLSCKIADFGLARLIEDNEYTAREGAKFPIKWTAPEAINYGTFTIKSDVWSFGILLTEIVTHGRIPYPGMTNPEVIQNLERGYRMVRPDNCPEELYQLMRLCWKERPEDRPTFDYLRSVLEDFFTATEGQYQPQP
Chain of LIMK1, construct: aa285-end, human (P53667 285-647, looked up): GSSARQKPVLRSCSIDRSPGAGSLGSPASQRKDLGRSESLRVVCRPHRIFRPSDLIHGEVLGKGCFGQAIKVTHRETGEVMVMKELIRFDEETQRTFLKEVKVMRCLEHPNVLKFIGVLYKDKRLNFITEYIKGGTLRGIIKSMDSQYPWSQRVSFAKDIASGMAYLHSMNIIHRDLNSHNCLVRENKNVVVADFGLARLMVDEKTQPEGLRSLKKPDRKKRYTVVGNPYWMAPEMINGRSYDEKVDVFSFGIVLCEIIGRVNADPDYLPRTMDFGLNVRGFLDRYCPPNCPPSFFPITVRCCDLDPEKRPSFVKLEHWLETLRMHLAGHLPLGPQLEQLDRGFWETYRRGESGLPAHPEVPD

ERBB4, construct: aa682-993, human (from UniProt Q15303)
relative phosphorylation
Details	at +1	at +2	at +3	at +4	at +5	at -1	at -2	at -3	at -4	at -5
A fixed	1	0.674	0.487	0.87	1.07	0.611	1.41	0.86	1.34	1.06
D fixed	0.859	1.43	0.443	0.917	0.946	2.49	1.76	1.84	1.36	1.25
E fixed	1.87	2.03	0.446	1.07	0.98	2.43	2.11	2.33	1.62	1.1
F fixed	1.07	1.32	2.24	1.18	1.25	0.62	0.599	0.925	1.12	1.08
G fixed	0.413	0.375	0.427	1.13	1.14	0.519	1.04	0.941	1.09	0.998
H fixed	0.893	0.725	0.757	0.987	0.865	0.81	0.877	0.81	0.757	1
I fixed	1.93	1.14	2.4	0.846	0.858	1.96	0.757	0.647	0.789	0.823
K fixed	0.252	0.401	0.211	0.647	0.903	0.297	0.514	0.691	0.733	0.913
L fixed	1.03	0.97	1.97	0.758	1.01	1.21	0.826	0.859	0.931	0.936
M fixed	1.12	0.975	1.43	0.922	0.959	0.876	0.57	0.842	0.757	0.892
N fixed	0.453	0.909	0.439	0.635	0.757	1.24	1.08	1.37	0.863	1.16
P fixed	0.345	0.691	0.616	1.28	1.49	0.503	1.22	0.964	1.14	0.907
Q fixed	1.09	0.79	0.475	0.838	0.757	0.955	1.12	0.962	1.45	1.23
R fixed	0.318	0.58	0.328	0.769	0.864	0.333	0.508	0.602	0.65	0.897
S fixed	0.678	0.839	0.6	1.06	1.13	0.506	1.03	0.981	0.882	0.903
T fixed	1.1	1.05	0.563	0.87	1.02	1.01	0.872	0.924	0.537	0.79
V fixed	2.46	1.2	1.46	0.93	0.911	1.11	1.16	0.697	0.836	0.815
W fixed	1.11	1.9	2.71	2.28	1.09	0.522	0.541	0.759	1.13	1.25
pThr fixed	2.75	2.29	0.524	1.01	1.01	3.76	2.43	2.64	1.41	1.21
pTyr fixed	15.4	5.38	1.12	1.4	1.13	2.48	2.59	2.35	1.62	1.31

FLT3, construct: aa564-end, human (from UniProt P36888)
relative phosphorylation
Details	at +1	at +2	at +3	at +4	at +5	at -1	at -2	at -3	at -4	at -5
A fixed	0.822	0.62	0.639	0.968	0.955	0.749	0.806	0.766	1.05	0.952
D fixed	0.318	0.629	0.321	0.688	0.696	1.49	1.19	1.44	1.33	1.14
E fixed	0.643	0.89	0.227	0.826	0.771	1.2	1.15	1.69	1.56	1.15
F fixed	2.12	1.22	1.72	0.984	1.18	1.12	0.669	0.834	1	0.998
G fixed	0.431	0.368	0.603	0.904	1.19	0.574	0.972	0.786	1.21	1.16
H fixed	1.7	0.78	0.96	1	1.15	1.56	1.1	0.946	0.938	0.976
I fixed	1.6	1.19	1.52	1.05	0.961	1.25	0.954	0.688	0.913	0.871
K fixed	0.705	1.02	0.895	1.2	0.902	0.583	0.843	1	0.874	1.05
L fixed	1.21	1.2	1.3	0.878	1.07	1.18	0.88	0.878	1.02	0.997
M fixed	1.2	1	1.09	1.22	1.18	1.02	0.701	1.03	0.889	0.869
N fixed	0.455	1.1	0.54	0.807	0.864	1.25	1.23	1.46	0.951	1.36
P fixed	0.297	0.685	0.959	0.732	1.18	0.777	1.08	0.719	0.903	0.833
Q fixed	1	0.989	0.665	1.17	0.839	1.11	1.26	1.03	1.21	1.17
R fixed	1.01	1.63	1.6	1.89	1.06	0.639	0.957	1.27	0.924	1.43
S fixed	0.687	0.774	0.689	0.858	0.888	0.579	1.05	0.832	0.656	0.717
T fixed	0.77	0.814	0.706	0.741	1.22	0.778	0.894	0.708	0.614	0.612
V fixed	1.61	1.16	1.65	1.08	0.938	1.4	1.52	0.878	0.808	0.787
W fixed	1.43	1.94	1.91	1	0.961	0.746	0.75	1.04	1.15	0.928
pThr fixed	0.505	0.966	0.209	0.413	0.512	1.02	0.971	1.23	0.887	1.02
pTyr fixed	1.92	1.34	0.334	0.649	0.693	2.37	1.29	1.63	1.43	1.11

LCK, construct: Full length, human (from UniProt P06239)
relative phosphorylation
Details	at +1	at +2	at +3	at +4	at +5	at -1	at -2	at -3	at -4	at -5
A fixed	1.69	1.08	0.69	0.928	1.14	0.73	1.02	0.875	1.08	1.06
D fixed	1.03	0.616	0.245	0.484	0.691	0.877	1.4	1.77	1.4	1.28
E fixed	1.58	1.07	0.211	0.557	0.532	1.22	1.68	2.02	1.63	1.13
F fixed	0.615	0.776	1.65	0.931	1.28	1.06	0.572	0.895	0.822	0.96
G fixed	2.95	0.934	0.904	1.18	1.14	0.416	1.35	1.1	1.25	1.17
H fixed	0.786	0.711	1.06	1.02	0.844	0.757	0.99	1.01	0.975	0.962
I fixed	0.738	0.932	1.92	0.85	0.639	2.81	0.663	0.549	0.792	0.836
K fixed	0.271	0.936	0.752	1.66	1.07	0.308	0.641	0.562	0.665	0.852
L fixed	0.686	0.754	1.67	0.887	0.942	1.93	0.796	0.731	0.921	0.866
M fixed	1.37	0.795	0.932	1.03	0.91	0.894	0.726	0.73	0.792	0.878
N fixed	0.54	0.934	0.429	0.801	0.92	0.431	1.25	1.42	1.11	1.24
P fixed	0.225	1.33	0.84	1.07	1.31	0.833	1.32	1.01	1.2	1.23
Q fixed	0.979	0.954	0.45	1	0.937	0.538	1.2	1.01	1.19	1.15
R fixed	0.438	1.2	1.55	1.69	1.34	0.238	0.696	0.637	0.82	0.98
S fixed	1.11	1.31	0.651	0.911	1.28	0.405	1.22	0.982	0.885	0.897
T fixed	0.821	1.36	0.697	0.849	0.968	1.32	0.982	0.892	0.735	0.841
V fixed	0.868	1.2	1.33	0.846	0.89	2.65	0.749	0.693	0.749	0.703
W fixed	1.3	1.11	2.02	1.3	1.16	0.584	0.748	1.11	0.989	0.971
pThr fixed	0.786	1.27	0.195	0.27	0.448	3.03	1.47	1.18	1.13	1.17
pTyr fixed	1.22	1.24	0.303	0.289	0.434	1.21	1.16	1.59	1.64	0.861

LIMK1, construct: aa285-end, human (from UniProt P53667)
relative phosphorylation
Details	at +1	at +2	at +3	at +4	at +5	at -1	at -2	at -3	at -4	at -5
A fixed	0.862	0.869	0.944	1.08	0.821	0.957	0.937	0.905	1.05	0.934
D fixed	0.776	0.662	0.6	0.613	0.56	0.811	0.735	0.778	0.812	0.737
E fixed	0.728	0.669	0.66	0.544	0.532	0.672	0.689	0.68	0.763	0.813
F fixed	0.879	1.2	1.21	1.23	1.18	0.849	1.08	1.21	1.02	1.1
G fixed	1.22	0.739	0.954	0.989	0.991	1.31	1.02	1.04	1.08	1.02
H fixed	1.06	1.07	1.11	1.1	1.06	1.06	1.02	0.955	0.953	1.09
I fixed	0.769	0.852	0.813	0.902	0.748	0.753	0.853	0.667	0.769	0.946
K fixed	1.35	1.49	1.4	1.37	1.46	1.28	1.33	1.16	1.3	1.14
L fixed	0.738	0.856	0.829	1	0.825	0.782	0.822	0.865	0.833	0.876
M fixed	0.802	0.926	0.996	0.973	0.836	0.793	0.833	0.801	0.837	0.843
N fixed	1.09	0.92	0.945	0.797	0.838	1.01	1.26	1.29	0.885	0.902
P fixed	1.11	0.849	0.97	0.87	0.89	1.12	1.09	1.02	1.06	0.935
Q fixed	0.961	0.921	0.865	0.74	0.849	0.888	0.846	1.13	1	0.858
R fixed	1.6	1.63	1.39	1.24	1.43	1.53	1.31	1.42	1.41	1.34
V fixed	0.713	0.979	0.782	0.907	0.754	0.81	0.86	0.819	0.807	0.837
W fixed	1.34	1.37	1.54	1.64	2.22	1.38	1.31	1.26	1.42	1.62
pThr fixed	0.753	0.513	0.519	0.596	0.409	0.704	0.664	0.635	0.96	0.703
pTyr fixed	0.761	0.655	0.689	0.61	0.518	1.61	0.887	1.34	0.667	0.744
